# Measured values from PMC5476561.
# Experiments:
# [1] = molecular target: Pfs25-IMX313-CTag (Plasmodium falciparum) (UniProt P13829); assay: SEC
# [2] = molecular target: Pfs25-IMX313-CTag (Plasmodium falciparum) (UniProt P13829); assay: non-reducing SDS-PAGE; Coomassie-stained gel, non-reduced against reduced sample
# SpyCatcher-AP205 = assay: reducing SDS-PAGE of the covalent conjugate
Substance,stoichiometry N [1],stoichiometry N [2],percent coupling (coat protein molecules linked to Pfs25-SpyTag) (SpyCatcher-AP205)
Pfs25-IMX313-CTag (from UniProt P13829 22-193),7,7,–
Pfs25-SpyTag-CTag (from UniProt P13829 22-193),–,–,100%
